Source: paper PMC4758095

Experiments:
[1] = FAM-oAβ uptake, confocal fluorescence quantification, COS-7; settings: glycan lost; control: wild type SR-AI
[2] = live immunostaining; surface biotinylation pull-down; settings: glycan lost; control: wild type SR-AI
[3] = not described (stated in discussion only); settings: glycan lost; control: wild type MARCO

B1: SR-AI (scavenger receptor A type I): N143Q-N184Q (protein)
parent chain: MEQWDHFHNQQEDTDSCSESVKFDARSMTALLPPNPKNSPSLQEKLKSFKAALIALYLLVFAVLIPLIGIVAAQLLKWETKNCSVSSTNANDITQSLTGKGNDSEEEMRFQEVFMEHMSNMEKRIQHILDMEANLMDTEHFQNFSMTTDQRFNDILLQLSTLFSSVQGHGNAIDEISKSLISLNTTLLDLQLNIENLNGKIQENTFKQQEEISKLEERVYNVSAEIMAMKEEQVHLEQEIKGEVKVLNNITNDLRLKDWEHSQTLRNITLIQGPPGPPGEKGDRGPTGESGPRGFPGPIGPPGLKGDRGAIGFPGSRGLPGYAGRPGNSGPKGQKGEKGSGNTLTPFTKVRLVGGSGPHEGRVEILHSGQWGTICDDRWEVRVGQVVCRSLGYPGVQAVHKAAHFGQGTGPIWLNEVFCFGRESSIEECKIRQWGTRACSHSEDAGVTCTL
- other: ligand internalisation [1]: decreases
- localisation_or_trafficking [2]: no change

B2: SR-AI (scavenger receptor A type I): N143Q (protein)
parent chain: MEQWDHFHNQQEDTDSCSESVKFDARSMTALLPPNPKNSPSLQEKLKSFKAALIALYLLVFAVLIPLIGIVAAQLLKWETKNCSVSSTNANDITQSLTGKGNDSEEEMRFQEVFMEHMSNMEKRIQHILDMEANLMDTEHFQNFSMTTDQRFNDILLQLSTLFSSVQGHGNAIDEISKSLISLNTTLLDLQLNIENLNGKIQENTFKQQEEISKLEERVYNVSAEIMAMKEEQVHLEQEIKGEVKVLNNITNDLRLKDWEHSQTLRNITLIQGPPGPPGEKGDRGPTGESGPRGFPGPIGPPGLKGDRGAIGFPGSRGLPGYAGRPGNSGPKGQKGEKGSGNTLTPFTKVRLVGGSGPHEGRVEILHSGQWGTICDDRWEVRVGQVVCRSLGYPGVQAVHKAAHFGQGTGPIWLNEVFCFGRESSIEECKIRQWGTRACSHSEDAGVTCTL
- other: ligand internalisation [1]: no change
- localisation_or_trafficking [2]: no change

B3: SR-AI (scavenger receptor A type I): N184Q (protein)
parent chain: MEQWDHFHNQQEDTDSCSESVKFDARSMTALLPPNPKNSPSLQEKLKSFKAALIALYLLVFAVLIPLIGIVAAQLLKWETKNCSVSSTNANDITQSLTGKGNDSEEEMRFQEVFMEHMSNMEKRIQHILDMEANLMDTEHFQNFSMTTDQRFNDILLQLSTLFSSVQGHGNAIDEISKSLISLNTTLLDLQLNIENLNGKIQENTFKQQEEISKLEERVYNVSAEIMAMKEEQVHLEQEIKGEVKVLNNITNDLRLKDWEHSQTLRNITLIQGPPGPPGEKGDRGPTGESGPRGFPGPIGPPGLKGDRGAIGFPGSRGLPGYAGRPGNSGPKGQKGEKGSGNTLTPFTKVRLVGGSGPHEGRVEILHSGQWGTICDDRWEVRVGQVVCRSLGYPGVQAVHKAAHFGQGTGPIWLNEVFCFGRESSIEECKIRQWGTRACSHSEDAGVTCTL
- other: ligand internalisation [1]: no change
- localisation_or_trafficking [2]: no change

B4: SR-AI (scavenger receptor A type I): N249Q (protein)
parent chain: MEQWDHFHNQQEDTDSCSESVKFDARSMTALLPPNPKNSPSLQEKLKSFKAALIALYLLVFAVLIPLIGIVAAQLLKWETKNCSVSSTNANDITQSLTGKGNDSEEEMRFQEVFMEHMSNMEKRIQHILDMEANLMDTEHFQNFSMTTDQRFNDILLQLSTLFSSVQGHGNAIDEISKSLISLNTTLLDLQLNIENLNGKIQENTFKQQEEISKLEERVYNVSAEIMAMKEEQVHLEQEIKGEVKVLNNITNDLRLKDWEHSQTLRNITLIQGPPGPPGEKGDRGPTGESGPRGFPGPIGPPGLKGDRGAIGFPGSRGLPGYAGRPGNSGPKGQKGEKGSGNTLTPFTKVRLVGGSGPHEGRVEILHSGQWGTICDDRWEVRVGQVVCRSLGYPGVQAVHKAAHFGQGTGPIWLNEVFCFGRESSIEECKIRQWGTRACSHSEDAGVTCTL
- other: ligand internalisation [1]: no change
- localisation_or_trafficking [2]: no change

B5: SR-AI (scavenger receptor A type I): N102Q (protein)
parent chain: MEQWDHFHNQQEDTDSCSESVKFDARSMTALLPPNPKNSPSLQEKLKSFKAALIALYLLVFAVLIPLIGIVAAQLLKWETKNCSVSSTNANDITQSLTGKGNDSEEEMRFQEVFMEHMSNMEKRIQHILDMEANLMDTEHFQNFSMTTDQRFNDILLQLSTLFSSVQGHGNAIDEISKSLISLNTTLLDLQLNIENLNGKIQENTFKQQEEISKLEERVYNVSAEIMAMKEEQVHLEQEIKGEVKVLNNITNDLRLKDWEHSQTLRNITLIQGPPGPPGEKGDRGPTGESGPRGFPGPIGPPGLKGDRGAIGFPGSRGLPGYAGRPGNSGPKGQKGEKGSGNTLTPFTKVRLVGGSGPHEGRVEILHSGQWGTICDDRWEVRVGQVVCRSLGYPGVQAVHKAAHFGQGTGPIWLNEVFCFGRESSIEECKIRQWGTRACSHSEDAGVTCTL
- other: ligand internalisation [1]: no change
- localisation_or_trafficking [2]: no change

B6: SR-AI (scavenger receptor A type I): N102Q-N143Q (protein)
parent chain: MEQWDHFHNQQEDTDSCSESVKFDARSMTALLPPNPKNSPSLQEKLKSFKAALIALYLLVFAVLIPLIGIVAAQLLKWETKNCSVSSTNANDITQSLTGKGNDSEEEMRFQEVFMEHMSNMEKRIQHILDMEANLMDTEHFQNFSMTTDQRFNDILLQLSTLFSSVQGHGNAIDEISKSLISLNTTLLDLQLNIENLNGKIQENTFKQQEEISKLEERVYNVSAEIMAMKEEQVHLEQEIKGEVKVLNNITNDLRLKDWEHSQTLRNITLIQGPPGPPGEKGDRGPTGESGPRGFPGPIGPPGLKGDRGAIGFPGSRGLPGYAGRPGNSGPKGQKGEKGSGNTLTPFTKVRLVGGSGPHEGRVEILHSGQWGTICDDRWEVRVGQVVCRSLGYPGVQAVHKAAHFGQGTGPIWLNEVFCFGRESSIEECKIRQWGTRACSHSEDAGVTCTL
- other: ligand internalisation [1]: decreases
- localisation_or_trafficking [2]: no change

B7: SR-AI (scavenger receptor A type I): N267Q (protein)
parent chain: MEQWDHFHNQQEDTDSCSESVKFDARSMTALLPPNPKNSPSLQEKLKSFKAALIALYLLVFAVLIPLIGIVAAQLLKWETKNCSVSSTNANDITQSLTGKGNDSEEEMRFQEVFMEHMSNMEKRIQHILDMEANLMDTEHFQNFSMTTDQRFNDILLQLSTLFSSVQGHGNAIDEISKSLISLNTTLLDLQLNIENLNGKIQENTFKQQEEISKLEERVYNVSAEIMAMKEEQVHLEQEIKGEVKVLNNITNDLRLKDWEHSQTLRNITLIQGPPGPPGEKGDRGPTGESGPRGFPGPIGPPGLKGDRGAIGFPGSRGLPGYAGRPGNSGPKGQKGEKGSGNTLTPFTKVRLVGGSGPHEGRVEILHSGQWGTICDDRWEVRVGQVVCRSLGYPGVQAVHKAAHFGQGTGPIWLNEVFCFGRESSIEECKIRQWGTRACSHSEDAGVTCTL
- other: ligand internalisation [1]: no change
- localisation_or_trafficking [2]: no change

B8: SR-AI (scavenger receptor A type I): N102Q-N184Q (protein)
parent chain: MEQWDHFHNQQEDTDSCSESVKFDARSMTALLPPNPKNSPSLQEKLKSFKAALIALYLLVFAVLIPLIGIVAAQLLKWETKNCSVSSTNANDITQSLTGKGNDSEEEMRFQEVFMEHMSNMEKRIQHILDMEANLMDTEHFQNFSMTTDQRFNDILLQLSTLFSSVQGHGNAIDEISKSLISLNTTLLDLQLNIENLNGKIQENTFKQQEEISKLEERVYNVSAEIMAMKEEQVHLEQEIKGEVKVLNNITNDLRLKDWEHSQTLRNITLIQGPPGPPGEKGDRGPTGESGPRGFPGPIGPPGLKGDRGAIGFPGSRGLPGYAGRPGNSGPKGQKGEKGSGNTLTPFTKVRLVGGSGPHEGRVEILHSGQWGTICDDRWEVRVGQVVCRSLGYPGVQAVHKAAHFGQGTGPIWLNEVFCFGRESSIEECKIRQWGTRACSHSEDAGVTCTL
- other: ligand internalisation [1]: no change

B9: SR-AI (scavenger receptor A type I): N221Q (protein)
parent chain: MEQWDHFHNQQEDTDSCSESVKFDARSMTALLPPNPKNSPSLQEKLKSFKAALIALYLLVFAVLIPLIGIVAAQLLKWETKNCSVSSTNANDITQSLTGKGNDSEEEMRFQEVFMEHMSNMEKRIQHILDMEANLMDTEHFQNFSMTTDQRFNDILLQLSTLFSSVQGHGNAIDEISKSLISLNTTLLDLQLNIENLNGKIQENTFKQQEEISKLEERVYNVSAEIMAMKEEQVHLEQEIKGEVKVLNNITNDLRLKDWEHSQTLRNITLIQGPPGPPGEKGDRGPTGESGPRGFPGPIGPPGLKGDRGAIGFPGSRGLPGYAGRPGNSGPKGQKGEKGSGNTLTPFTKVRLVGGSGPHEGRVEILHSGQWGTICDDRWEVRVGQVVCRSLGYPGVQAVHKAAHFGQGTGPIWLNEVFCFGRESSIEECKIRQWGTRACSHSEDAGVTCTL
- other: ligand internalisation [1]: no change
- localisation_or_trafficking [2]: no change

B10: SR-AI (scavenger receptor A type I): N82Q (protein)
parent chain: MEQWDHFHNQQEDTDSCSESVKFDARSMTALLPPNPKNSPSLQEKLKSFKAALIALYLLVFAVLIPLIGIVAAQLLKWETKNCSVSSTNANDITQSLTGKGNDSEEEMRFQEVFMEHMSNMEKRIQHILDMEANLMDTEHFQNFSMTTDQRFNDILLQLSTLFSSVQGHGNAIDEISKSLISLNTTLLDLQLNIENLNGKIQENTFKQQEEISKLEERVYNVSAEIMAMKEEQVHLEQEIKGEVKVLNNITNDLRLKDWEHSQTLRNITLIQGPPGPPGEKGDRGPTGESGPRGFPGPIGPPGLKGDRGAIGFPGSRGLPGYAGRPGNSGPKGQKGEKGSGNTLTPFTKVRLVGGSGPHEGRVEILHSGQWGTICDDRWEVRVGQVVCRSLGYPGVQAVHKAAHFGQGTGPIWLNEVFCFGRESSIEECKIRQWGTRACSHSEDAGVTCTL
- other: ligand internalisation [1]: no change
- localisation_or_trafficking [2]: no change

B11: MARCO: N83Q-136Q (protein)
parent chain: MRNKKILKEDELLSETQQAAFHQIAMEPFEINVPKPKRRNGVNFSLAVVVIYLILLTAGAGLLVVQVLNLQARLRVLEMYFLNDTLAAEDSPSFSLLQSAHPGEHLAQGASRLQVLQAQLTWVRVSHEHLLQRVDNFTQNPGMFRIKGEQGAPGLQGHKGAMGMPGAPGPPGPPAEKGAKGAMGRDGATGPSGPQGPPGVKGEAGLQGPQGAPGKQGATGTPGPQGEKGSKGDGGLIGPKGETGTKGEKGDLGLPGSKGDRGMKGDAGVMGPPGAQGSKGDFGRPGPPGLAGFPGAKGDQGQPGLQGVPGPPGAVGHPGAKGEPGSAGSPGRAGLPGSPGSPGATGLKGSKGDTGLQGQQGRKGESGVPGPAGVKGEQGSPGLAGPKGAPGQAGQKGDQGVKGSSGEQGVKGEKGERGENSVSVRIVGSSNRGRAEVYYSGTWGTICDDEWQNSDAIVFCRMLGYSKGRALYKVGAGTGQIWLDNVQCRGTESTLWSCTKNSWGHHDCSHEEDAGVECSV
- localisation_or_trafficking [3]: abolishes
